Earlier results as cited in patent US5576301A, “Low molecular growth potentiating peptides” (The Penn State Research Foundation, priority 1994, dated 1996).

Legend:
[1] = tested on: tibial growth plate of hypophysectomized rats; conditions: hormone standard
[2] = comparison values
patients = patients treated with recombinant hGH

Row | Molecule | potency of GH standard preparation [1] [IU/mg protein] | further results
1 | Kabi hGH standard: human growth hormone standard obtained from Kabi Vitrum, Sweden | 3.0 | 
2 | human monomeric growth hormone: monomeric 22K human growth hormone |  | pI [2]: 5.1-5.6
3 | recombinant form of hGH: recombinant human growth hormone used in the United States to treat patients |  | patients treated that develop circulating antibodies (patients): 20~30%
4 | USDA bovine GH preparation: bovine growth hormone standard used in the tibial line bioassay (protein, UniProt P01246 27-217, looked up) Somatotropin: AFPAMSLSGLFANAVLRAQHLHQLAADTFKEFERTYIPEGQRYSIQNTQVAFCFSETIPAPTGKNEAQQKSDLELLRISLLLIQSWLGPLQFLSRVFTNSLVFGTSDRVYEKLKDLEEGILALMRELEDGTPRAGQILKQTYDKFDTNMRSDDALLKNYGLLSCFRKDLHKTETYLRVMKCRRFGEASCAF | 1.4 | 
